Values of other authors, collected in publication doi:10.1101/2025.09.11.675682.

Legend:
Assay in all cases: ITC
Settings in all cases: cited from earlier work
[1] = molecular target: LAT 161-180 (Homo sapiens) (UniProt O43561)
[2] = molecular target: SLP-76 157-420 (Homo sapiens) (UniProt Q13094)
[3] = molecular target: LAT 125-178 (Homo sapiens) (UniProt O43561)
[4] = molecular target: SLP-76 159-533 (Homo sapiens) (UniProt Q13094)
LAT (Homo sapiens) = LAT (Homo sapiens) (UniProt O43561)
[5] = molecular target: LAT 122-140 (Homo sapiens) (UniProt O43561)

Sequence of SLP-76 157-420 (Homo sapiens) (Q13094 157-420): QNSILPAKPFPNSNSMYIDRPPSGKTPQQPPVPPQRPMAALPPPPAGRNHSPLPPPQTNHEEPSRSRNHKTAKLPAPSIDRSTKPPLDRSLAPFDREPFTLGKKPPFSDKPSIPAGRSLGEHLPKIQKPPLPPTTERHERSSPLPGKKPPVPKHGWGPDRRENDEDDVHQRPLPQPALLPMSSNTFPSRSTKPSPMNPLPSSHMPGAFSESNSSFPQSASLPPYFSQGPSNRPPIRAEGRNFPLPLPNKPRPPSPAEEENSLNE
Sequence of Gads 1-322 (from UniProt O89100) (O89100 whole entry): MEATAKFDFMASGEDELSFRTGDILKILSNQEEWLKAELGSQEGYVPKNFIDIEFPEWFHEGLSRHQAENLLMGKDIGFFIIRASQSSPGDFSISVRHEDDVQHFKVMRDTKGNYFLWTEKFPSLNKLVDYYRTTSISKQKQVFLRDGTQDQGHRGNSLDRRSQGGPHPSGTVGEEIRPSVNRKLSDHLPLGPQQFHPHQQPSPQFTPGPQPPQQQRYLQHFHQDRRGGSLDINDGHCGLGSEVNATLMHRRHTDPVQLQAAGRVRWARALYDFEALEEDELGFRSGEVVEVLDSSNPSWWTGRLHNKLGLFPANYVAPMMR
Sequence of LAT 125-178 (Homo sapiens) (O43561 125-178): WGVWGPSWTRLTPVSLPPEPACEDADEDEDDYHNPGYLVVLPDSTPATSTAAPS
Sequence of PLC-γ1 550-846 (P19174 550-846): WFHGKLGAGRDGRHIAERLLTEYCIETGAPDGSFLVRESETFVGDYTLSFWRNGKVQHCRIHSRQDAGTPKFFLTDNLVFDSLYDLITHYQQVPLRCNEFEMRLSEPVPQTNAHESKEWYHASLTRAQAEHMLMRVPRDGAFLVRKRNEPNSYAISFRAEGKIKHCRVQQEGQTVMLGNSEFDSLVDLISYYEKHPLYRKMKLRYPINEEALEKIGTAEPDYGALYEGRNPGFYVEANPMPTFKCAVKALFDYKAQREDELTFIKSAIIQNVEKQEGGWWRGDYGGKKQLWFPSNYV
Sequence of Gads 1-322 (from UniProt O75791) (O75791 1-322): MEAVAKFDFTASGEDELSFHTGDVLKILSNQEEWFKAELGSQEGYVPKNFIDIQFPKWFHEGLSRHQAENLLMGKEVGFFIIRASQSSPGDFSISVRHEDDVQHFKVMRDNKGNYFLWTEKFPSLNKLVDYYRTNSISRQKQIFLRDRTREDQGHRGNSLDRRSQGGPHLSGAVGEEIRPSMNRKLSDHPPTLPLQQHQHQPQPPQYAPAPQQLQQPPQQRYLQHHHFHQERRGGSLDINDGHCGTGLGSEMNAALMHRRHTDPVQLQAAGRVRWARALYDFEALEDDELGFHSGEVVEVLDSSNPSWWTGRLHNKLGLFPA
Sequence of PLC-γ1 1-1219 (P19174 1-1219): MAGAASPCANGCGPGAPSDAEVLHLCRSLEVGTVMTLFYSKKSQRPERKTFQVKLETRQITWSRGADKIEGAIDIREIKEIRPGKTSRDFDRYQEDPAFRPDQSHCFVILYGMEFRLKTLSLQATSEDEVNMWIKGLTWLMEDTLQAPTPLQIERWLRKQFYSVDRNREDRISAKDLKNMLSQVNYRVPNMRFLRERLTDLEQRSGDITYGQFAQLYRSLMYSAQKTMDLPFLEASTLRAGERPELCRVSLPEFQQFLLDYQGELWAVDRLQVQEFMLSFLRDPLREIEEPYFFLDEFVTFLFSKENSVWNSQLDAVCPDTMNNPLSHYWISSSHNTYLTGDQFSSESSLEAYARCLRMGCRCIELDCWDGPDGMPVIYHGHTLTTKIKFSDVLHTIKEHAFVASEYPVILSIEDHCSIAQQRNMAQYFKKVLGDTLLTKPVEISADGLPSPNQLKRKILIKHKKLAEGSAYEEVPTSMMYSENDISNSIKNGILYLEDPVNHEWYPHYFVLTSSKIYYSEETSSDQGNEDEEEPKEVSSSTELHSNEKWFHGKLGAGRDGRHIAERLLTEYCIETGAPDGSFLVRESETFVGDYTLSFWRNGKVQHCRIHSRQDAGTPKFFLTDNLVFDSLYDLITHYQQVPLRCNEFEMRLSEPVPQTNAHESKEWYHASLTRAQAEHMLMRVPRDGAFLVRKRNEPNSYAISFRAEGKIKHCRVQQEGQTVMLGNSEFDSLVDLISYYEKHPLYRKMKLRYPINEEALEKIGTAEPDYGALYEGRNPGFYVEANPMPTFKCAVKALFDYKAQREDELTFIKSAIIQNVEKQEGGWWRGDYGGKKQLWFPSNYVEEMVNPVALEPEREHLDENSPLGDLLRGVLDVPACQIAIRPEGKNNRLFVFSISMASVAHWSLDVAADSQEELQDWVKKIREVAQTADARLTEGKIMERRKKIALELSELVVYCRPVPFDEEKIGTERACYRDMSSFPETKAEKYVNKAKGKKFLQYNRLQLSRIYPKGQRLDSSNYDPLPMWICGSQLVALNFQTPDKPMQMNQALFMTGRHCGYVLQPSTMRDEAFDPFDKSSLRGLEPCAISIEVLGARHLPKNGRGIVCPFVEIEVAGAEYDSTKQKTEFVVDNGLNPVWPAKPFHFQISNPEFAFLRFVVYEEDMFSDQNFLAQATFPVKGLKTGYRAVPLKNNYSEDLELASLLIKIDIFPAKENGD
Sequence of LAT (Homo sapiens) (O43561 161-180): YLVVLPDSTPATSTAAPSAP
Sequence of SLP-76 159-533 (Homo sapiens) (Q13094 159-533): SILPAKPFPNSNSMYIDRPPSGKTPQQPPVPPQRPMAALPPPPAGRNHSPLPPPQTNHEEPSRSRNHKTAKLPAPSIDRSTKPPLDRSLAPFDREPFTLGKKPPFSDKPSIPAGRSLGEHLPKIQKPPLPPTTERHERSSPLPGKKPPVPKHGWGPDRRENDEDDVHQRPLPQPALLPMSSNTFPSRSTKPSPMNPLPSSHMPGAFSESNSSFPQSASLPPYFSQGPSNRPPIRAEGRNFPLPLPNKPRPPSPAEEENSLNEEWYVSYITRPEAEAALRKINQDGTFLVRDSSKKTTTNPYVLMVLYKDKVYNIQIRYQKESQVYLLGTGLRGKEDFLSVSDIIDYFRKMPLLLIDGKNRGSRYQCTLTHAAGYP
Sequence of PLC-γ1 (P19174 2-1290): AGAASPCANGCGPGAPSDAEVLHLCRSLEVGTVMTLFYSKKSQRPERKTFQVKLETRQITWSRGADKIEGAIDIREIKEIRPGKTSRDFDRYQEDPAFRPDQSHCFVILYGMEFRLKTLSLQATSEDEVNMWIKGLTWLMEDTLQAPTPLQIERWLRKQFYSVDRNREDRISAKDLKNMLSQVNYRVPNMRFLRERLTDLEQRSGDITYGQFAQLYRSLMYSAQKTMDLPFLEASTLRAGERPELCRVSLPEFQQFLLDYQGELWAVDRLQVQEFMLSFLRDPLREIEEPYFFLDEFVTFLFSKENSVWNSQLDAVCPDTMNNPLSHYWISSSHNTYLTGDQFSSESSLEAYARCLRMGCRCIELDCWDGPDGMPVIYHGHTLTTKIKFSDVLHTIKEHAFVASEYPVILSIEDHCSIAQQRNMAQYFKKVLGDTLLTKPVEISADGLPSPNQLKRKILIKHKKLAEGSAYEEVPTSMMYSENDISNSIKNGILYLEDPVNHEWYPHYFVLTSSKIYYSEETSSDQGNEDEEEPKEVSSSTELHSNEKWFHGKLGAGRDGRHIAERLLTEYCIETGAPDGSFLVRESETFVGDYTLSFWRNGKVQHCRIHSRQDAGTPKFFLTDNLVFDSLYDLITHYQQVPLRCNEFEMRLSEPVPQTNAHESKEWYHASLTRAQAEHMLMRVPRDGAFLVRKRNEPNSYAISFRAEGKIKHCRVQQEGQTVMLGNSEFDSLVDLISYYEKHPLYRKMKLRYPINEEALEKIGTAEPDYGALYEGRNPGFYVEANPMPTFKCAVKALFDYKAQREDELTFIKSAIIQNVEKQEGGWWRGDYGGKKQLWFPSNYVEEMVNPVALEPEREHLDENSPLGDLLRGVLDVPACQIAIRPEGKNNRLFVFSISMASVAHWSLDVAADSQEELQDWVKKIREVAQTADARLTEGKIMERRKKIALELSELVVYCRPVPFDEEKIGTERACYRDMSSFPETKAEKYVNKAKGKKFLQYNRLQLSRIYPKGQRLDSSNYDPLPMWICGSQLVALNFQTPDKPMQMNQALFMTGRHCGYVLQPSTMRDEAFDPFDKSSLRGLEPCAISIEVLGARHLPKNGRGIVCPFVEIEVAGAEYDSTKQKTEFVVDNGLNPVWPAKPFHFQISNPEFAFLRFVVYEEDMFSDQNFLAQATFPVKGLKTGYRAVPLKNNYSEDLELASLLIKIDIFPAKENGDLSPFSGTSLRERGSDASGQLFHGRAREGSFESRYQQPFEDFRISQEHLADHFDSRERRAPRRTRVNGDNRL

Row | Substance | Kd [2] [nM] | Kd [3] [nM] | other results
1 | Gads 1-322 (from UniProt O75791) | 19 | – | Kd [1]: 164 nM
2 | Gads 1-322 (from UniProt O89100) | 19 | 213 | Kd [4]: 3.6 nM; Kd (LAT (Homo sapiens)): 164 nM
3 | PLC-γ1 1-1219 (from UniProt P19174) | – | 84 | –
4 | PLC-γ1 550-846 (from UniProt P19174) | 3340 | – | Kd [5]: 62 nM
5 | PLC-γ1 (from UniProt P19174) | 3340 | – | –
